Laboratory results reported in US20210054094A1 (Hoffmann-La Roche, published 2021).

Legend:
[1] = biological target: T1, human GPRC5D (human, UniProt Q9NZD1 1-345); test: cell-based or functional assay
[2] = biological target: T1, human GPRC5D; test: cell-based or functional assay; remark: listed apart in the source

T1 sequence (Q9NZD1 whole entry): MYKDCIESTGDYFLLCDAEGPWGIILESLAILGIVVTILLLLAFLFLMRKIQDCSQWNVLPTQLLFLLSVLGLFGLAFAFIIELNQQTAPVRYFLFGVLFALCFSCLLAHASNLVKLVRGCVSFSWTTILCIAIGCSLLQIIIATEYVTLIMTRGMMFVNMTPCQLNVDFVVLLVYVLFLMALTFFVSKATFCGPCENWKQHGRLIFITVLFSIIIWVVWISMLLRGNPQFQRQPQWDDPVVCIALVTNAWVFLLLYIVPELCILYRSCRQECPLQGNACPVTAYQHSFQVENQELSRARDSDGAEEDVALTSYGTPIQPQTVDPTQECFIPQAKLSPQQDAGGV

Row | Binder | CAR-J2 EC50 (PGLALA-CAR-J activation, L363 target cells) [2] [ng/mL] | further results
1 | ET150-5-TCB (bispecific antibody, human IgG1, lambda, L234A L235A) light 1: QSVLTQPPSASGTPGQRVTISCSGSRSNVGGNYVFWYQQVPGATPKLLIYRSNQRPSGVPDRFAGSKSGSSASLAISGLRSEDEADYYCATWDDSLSGFVFGTGTKVTVLGQPKAAPSVTLFPPSSKKLQANKATLVCLISDFYPGAVTVAWKADSSPVKAGVETTTPSKQSNNKYAASSYLSLTPEQWKSHRSYSCQVTHEGSTVEKTVAPTECS light 2: EVQLLESGGGLVQPGGSLRLSCAASGFTFSTYAMNWVRQAPGKGLEWVSRIRSKYNNYATYYADSVKGRFTISRDDSKNTLYLQMNSLRAEDTAVYYCVRHGNFGNSYVSWFAYWGQGTLVTVSSASVAAPSVFIFPPSDEQLKSGTASVVCLLNNFYPREAKVQWKVDNALQSGNSQESVTEQDSKDSTYSLSSTLTLSKADYEKHKVYACEVTHQGLSSPVTKSFNRGEC heavy 1: EVQLVESGGGLVKPGGSLRLSCAASGFTFSDYYMSWIRQAPGKGLEWVSYISSSGSTIYYADSVKGRFTISRDNAKNSLYLQMNSLRAEDTAVYYCARGYGKAYDQWGQGTLVTVSSASTKGPSVFPLAPSSKSTSGGTAALGCLVEDYFPEPVTVSWNSGALTSGVHTFPAVLQSSGLYSLSSVVTVPSSSLGTQTYICNVNHKPSNTKVDEKVEPKSCDKTHTCPPCPAPEAAGGPSVFLFPPKPKDTLMISRTPEVTCVVVDVSHEDPEVKFNWYVDGVEVHNAKTKPREEQYNSTYRVVSVLTVLHQDWLNGKEYKCKVSNKALGAPIEKTISKAKGQPREPQVCTLPPSRDELTKNQVSLSCAVKGFYPSDIAVEWESNGQPENNYKTTPPVLDSDGSFFLVSKLTVDKSRWQQGNVFSCSVMHEALHNHYTQKSLSLSPGK heavy 2: not shown | – | EC50 of T cell cytotoxicity (LDH release) on AMO-1 cells [1]: 83.5 pM; EC50 of T cell cytotoxicity (LDH release) on L363 cells [1]: 768 pM; EC50 of T cell cytotoxicity (LDH release) on NCI-H929 cells [1]: 833 pM; EC50 of T cell cytotoxicity (LDH release) on RPMI-8226 cells [1]: 797 pM
2 | P1AE5709 (antibody, V domains shown) VH: EVQLLESGGGLVQPGGSLRLSCAASGFTFSKYAMAWVRQAPGKGLEWVASISTGGVNTYYRDSVKARFTISRDNSKNTLYLQMNSLRAEDTAVYYCATHTGDYFDYWGQGTMVTVSS VL: EIVLTQSPGTLSLSPGERATLSCRASQSVSISGINLMNWYQQKPGQQPRLLIYHASILASGIPDRFSGSGSGTDFTLTISRLEPEDFAVYYCQQTRESPLTFGQGTRLEIK | 59.4 | –
3 | P1AE5710 (antibody, V domains shown) VH: EVQLLESGGGLVQPGGSLRLSCAASGFTFSKYAMAWVRQAPGKGLEWVASISTGGVNTYYRDSVKARFTISRDNSKNTLYLQMNSLRAEDTAVYYCATHTGDYFDYWGQGTMVTVSS VL: EIVLTQSPGTLSLSPGERATLSCRASQSVSISGINLMNWYQQKPGQQPKLLIYHASILASGIPDRFSGSGSGTDFTLTISRLEPEDFAVYYCQQTRESPLTFGQGTRLEIK | 3.5 | –
4 | P1AE5716 (antibody, V domains shown) VH: ELQLLESGGGLVQPGGSLRLSCAASGFTFSKYAMAWVRQAPGKGLEWVASISTGGVNTYYRDSVKARFTISRDNAKNTLYLQMNSLRAEDTAVYYCATHTGDYFDYWGQGTMVTVSS VL: EIVLTQSPGTLSLSPGERATLSCRASQSVSISGINLMNWYQQKPGQQPRLLIYHASILASGIPDRFSGSGSGTDFTLTISRLEPEDFAVYYCQQTRESPLTFGQGTRLEIK | 3.3 | –
5 | P1AE5717 (antibody, V domains shown) VH: ELQLLESGGGLVQPGGSLRLSCAASGFTFSKYAMAWVRQAPGKGLEWVASISTGGVNTYYRDSVKARFTISRDNAKNTLYLQMNSLRAEDTAVYYCATHTGDYFDYWGQGTMVTVSS VL: EIVLTQSPGTLSLSPGERATLSCRASQSVSISGINLMNWYQQKPGQQPKLLIYHASILASGIPDRFSGSGSGTDFTLTISRLEPEDFAVYYCQQTRESPLTFGQGTRLEIK | 79.9 | –
6 | P1AE5722 (antibody, V domains shown) VH: EVQLLESGGGLVQPGGSLRLSCAASGFTFSKYAMAWVRQAPGKGLEWVASISTGGVNTYYADSVKGRFTISRDNSKNTLYLQMNSLRAEDTAVYYCATHTGDYFDYWGQGTMVTVSS VL: EIVLTQSPGTLSLSPGERATLSCRASQSVSISGINLMNWYQQKPGQQPRLLIYHASILASGIPDRFSGSGSGTDFTLTISRLEPEDFAVYYCQQTRESPLTFGQGTRLEIK | 4.6 | –
7 | P1AE5712 (antibody, V domains shown) VH: EVQLLESGGGLVQPGGSLRLSCAASGFTFSKYAMAWVRQAPGKGLEWVASISTGGVNTYYRDSVKARFTISRDNSKNTLYLQMNSLRAEDTAVYYCATHTGDYFDYWGQGTMVTVSS VL: DIQMTQSPSSLSASVGDRVTITCRASQSVSISGINLMNWYQQKPGKQPKLLIYHASILASGVPSRFSGSGSGTDFTLTISSLQPEDFATYYCQQTRESPLTFGQGTRLEIK | 16.1 | –
8 | P1AE5718 (antibody, V domains shown) VH: ELQLLESGGGLVQPGGSLRLSCAASGFTFSKYAMAWVRQAPGKGLEWVASISTGGVNTYYRDSVKARFTISRDNAKNTLYLQMNSLRAEDTAVYYCATHTGDYFDYWGQGTMVTVSS VL: DIQMTQSPSSLSASVGDRVTITCRASQSVSISGINLMNWYQQKPGKQPKLLIYHASILASGVPSRFSGSGSGTDFTLTISSLQPEDFATYYCQQTRESPLTFGQGTRLEIK | 105 | –
9 | P1AE5719 (antibody, V domains shown) VH: ELQLLESGGGLVQPGGSLRLSCAASGFTFSKYAMAWVRQAPGKGLEWVASISTGGVNTYYRDSVKARFTISRDNAKNTLYLQMNSLRAEDTAVYYCATHTGDYFDYWGQGTMVTVSS VL: DIQMTQSPSSLSASVGDRVTITCRASQSVSISGINLMNWYQQKPGQQPKLLIYHASILASGVPSRFSGSGSGTDFTLTISSLQPEDFATYYCQQTRESPLTFGQGTRLEIK | 2.8 | –

The next lines start with results.

Row | CAR-J2 EC50 (PGLALA-CAR-J activation, L363 target cells) [2] [ng/mL] | Binder | further results
10 | 3.7 | P1AE5723 (antibody, V domains shown) VH: EVQLLESGGGLVQPGGSLRLSCAASGFTFSKYAMAWVRQAPGKGLEWVASISTGGVNTYYADSVKGRFTISRDNSKNTLYLQMNSLRAEDTAVYYCATHTGDYFDYWGQGTMVTVSS VL: EIVLTQSPGTLSLSPGERATLSCRASQSVSISGINLMNWYQQKPGQQPKLLIYHASILASGIPDRFSGSGSGTDFTLTISRLEPEDFAVYYCQQTRESPLTFGQGTRLEIK | –
11 | 5.6 | P1AE5728 (antibody, V domains shown) VH: ELQLLESGGGLVQPGGSLRLSCAASGFTFSKYAMAWVRQAPGKGLEWVASISTGGVNTYYADSVKGRFTISRDNAKNTLYLQMNSLRAEDTAVYYCATHTGDYFDYWGQGTMVTVSS VL: EIVLTQSPGTLSLSPGERATLSCRASQSVSISGINLMNWYQQKPGQQPRLLIYHASILASGIPDRFSGSGSGTDFTLTISRLEPEDFAVYYCQQTRESPLTFGQGTRLEIK | –
12 | 61.3 | P1AE5729 (antibody, V domains shown) VH: ELQLLESGGGLVQPGGSLRLSCAASGFTFSKYAMAWVRQAPGKGLEWVASISTGGVNTYYADSVKGRFTISRDNAKNTLYLQMNSLRAEDTAVYYCATHTGDYFDYWGQGTMVTVSS VL: EIVLTQSPGTLSLSPGERATLSCRASQSVSISGINLMNWYQQKPGQQPKLLIYHASILASGIPDRFSGSGSGTDFTLTISRLEPEDFAVYYCQQTRESPLTFGQGTRLEIK | –
13 | 3.6 | P1AE5724 (antibody, V domains shown) VH: EVQLLESGGGLVQPGGSLRLSCAASGFTFSKYAMAWVRQAPGKGLEWVASISTGGVNTYYADSVKGRFTISRDNSKNTLYLQMNSLRAEDTAVYYCATHTGDYFDYWGQGTMVTVSS VL: DIQMTQSPSSLSASVGDRVTITCRASQSVSISGINLMNWYQQKPGKQPKLLIYHASILASGVPSRFSGSGSGTDFTLTISSLQPEDFATYYCQQTRESPLTFGQGTRLEIK | –
14 | 10.9 | P1AE5725 (antibody, V domains shown) VH: EVQLLESGGGLVQPGGSLRLSCAASGFTFSKYAMAWVRQAPGKGLEWVASISTGGVNTYYADSVKGRFTISRDNSKNTLYLQMNSLRAEDTAVYYCATHTGDYFDYWGQGTMVTVSS VL: DIQMTQSPSSLSASVGDRVTITCRASQSVSISGINLMNWYQQKPGQQPKLLIYHASILASGVPSRFSGSGSGTDFTLTISSLQPEDFATYYCQQTRESPLTFGQGTRLEIK | –
15 | 3.5 | P1AE5730 (antibody, V domains shown) VH: ELQLLESGGGLVQPGGSLRLSCAASGFTFSKYAMAWVRQAPGKGLEWVASISTGGVNTYYADSVKGRFTISRDNAKNTLYLQMNSLRAEDTAVYYCATHTGDYFDYWGQGTMVTVSS VL: DIQMTQSPSSLSASVGDRVTITCRASQSVSISGINLMNWYQQKPGKQPKLLIYHASILASGVPSRFSGSGSGTDFTLTISSLQPEDFATYYCQQTRESPLTFGQGTRLEIK | –
16 | 2.3 | P1AE5731 (antibody, V domains shown) VH: ELQLLESGGGLVQPGGSLRLSCAASGFTFSKYAMAWVRQAPGKGLEWVASISTGGVNTYYADSVKGRFTISRDNAKNTLYLQMNSLRAEDTAVYYCATHTGDYFDYWGQGTMVTVSS VL: DIQMTQSPSSLSASVGDRVTITCRASQSVSISGINLMNWYQQKPGQQPKLLIYHASILASGVPSRFSGSGSGTDFTLTISSLQPEDFATYYCQQTRESPLTFGQGTRLEIK | –
